Reference: the supplement of paper PMC11865577

What follows are sequences tested on TO-N3-2 (biotin conjugate) (assay: pull-down binding Z-score (relative to library population); higher = stronger binding). Conditions: RNA library: Library-2.
In short: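 An RNA library (1 μg) carrying a Cy5 or Cy3 end label was heat-folded in phosphate/NaCl/KCl buffer, then incubated for 60 min at 25 °C with streptavidin beads loaded with 100 pmol of biotin-conjugated small molecule. The beads were washed three times, and bound RNA was released in hot SDS and hybridised to a DNA barcode microarray for 20 h at 55.5 °C. Each binding score was derived by subtracting the signal from beads without compound, averaging the barcoded replicate probes after removing the highest and lowest, and expressing the result as a Z-score relative to the library mean and standard deviation.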
“ACAACAGGAGUCACCUUUUGU [DMSMaPseq_invitro_SARS-CoV-2_Motif_108]” was tested, and the “pull-down binding Z-score” value was -1.07.
“ACAACCCUUAAGGGUGU [SHAPE_invivo_SARS-CoV-2_Motif_115]” was tested, and the “pull-down binding Z-score” value was -1.1.
In the case of “ACAAGAGGGUGUGGUUGAUUAUGGUGCUAGAUUUUACUUUUACACCAGUAAAACAACUGUAGCGUCACUUAUCAACACACUUAACGAUCUAAAUGAAACUCUUGU”, the “pull-down binding Z-score” value is reported as 0.277.
For ACAAGAUGAUAAGAAAAUCAAAGCUUGU, the “pull-down binding Z-score” value was -0.969.
“ACAAGGCUAUUGAUGGUGGUGUCACUCGUGACAUAGCAUCUACAGAUACUUGU [SHAPE_invitro_SARS-CoV-2_Motif_170]” was tested, and the “pull-down binding Z-score” value was -0.052.
With “ACAAGUUGCAAUUUACAAGUCUUGAAAUUCCACGUAGGAAUGUGGCAACUUUACAAGCUGAAAAUGUAACAGGACUCUUUAAAGAUUGU” the “pull-down binding Z-score” value was 0.121.
“ACAAUGGCAGACCUCGUCUAUGCUUUAAGGCAUUUUGAUGAAGGUAAUUGU” was tested, and the “pull-down binding Z-score” value was -1.12.
With “ACACAUUCUGACAAAUUCACAGAUGGUGU [SHAPE_invitro_SARS-CoV-2_Motif_350]” the “pull-down binding Z-score” value was 0.264.
For ACACGGUGUUUAAACCGUGU, the “pull-down binding Z-score” value was -1.15.
In the case of “ACACUAAUUCUUUCACACGUGGUGU [DMSMaPseq_invitro_SARS-CoV-2_Motif_381]”, the “pull-down binding Z-score” value is reported as -0.973.
In the case of ACACUCUACGUGU, the “pull-down binding Z-score” value is reported as -1.93.
In the case of ACAGAAUGCUGU, the “pull-down binding Z-score” value is reported as -1.19.
“ACAGACUUCAUUAAGAUGUGGUGCUUGCAUACGUAGACCAUUCUUAUGUUGUAAAUGCUGUUACGACCAUGUCAUAUCAACAUCACAUAAAUUAGUCUUGUCUGU” was tested, and the “pull-down binding Z-score” value was -0.489.
For “ACAGAGACUGAUAGUAAGUUCUCUGU [IAV_invivo_NA_6_Motif_16+IAV_invivo_NA_6_Motif_16]”, the “pull-down binding Z-score” value was -1.08.
With ACAGAUCUUUACCAGGAGUUUUCUGU the “pull-down binding Z-score” value was -1.3.
With “ACAGCAGAGUGCUGU [IAV_invivo_M1_M2_7_Motif_17+IAV_invivo_M1_M2_7_Motif_17]” the “pull-down binding Z-score” value was -1.37.
For “ACAGGAGUCACCUUUUGU [SHAPE_invitro_SARS-CoV-2_Motif_112]”, the “pull-down binding Z-score” value was -0.669.
“ACAGGGACUACUCCCACCCAAGAAUAGCAUAGAUGCCUUCAAACUCAACAUUAAAUUGUUGGGUGUUGGUGGCAAACCUUGUAUCAAAGUAGCCACUGU” was tested, and the “pull-down binding Z-score” value was -0.183.
For “ACAGGUUUUAUCGAACCUGU [IAV_invivo_PB1_2_Motif_25+IAV_invivo_PB1_2_Motif_25]”, the “pull-down binding Z-score” value was -1.54.
In the case of ACAGUAUGUCUUUUGUACUGU, the “pull-down binding Z-score” value is reported as -1.28.
“ACAGUCUGUACCGUCUGCGGUAUGUGGAAAGGUUAUGGCUGU” was tested, and the “pull-down binding Z-score” value was 0.213.
In the case of “ACAUACUAGGACCUCUUUCUGCUCAAACUGGAAUUGCCGUUUUAGAUAUGU [DMSMaPseq_invitro_SARS-CoV-2_Motif_193]”, the “pull-down binding Z-score” value is reported as -0.421.
With “ACAUAGCAGUGGUGUUACCCGUGAACUCAUGCGUGAGCUUAACGGAGGGGCAUACACUCGCUAUGU” the “pull-down binding Z-score” value was 0.0437.
With ACAUCAGCUUGUGUUUUGGCUGCUGAAUGU the “pull-down binding Z-score” value was -0.485.
With “ACAUCUCUGGCAUUAAUGCUUCAGUUGU [SHAPE_invivo_SARS-CoV-2_Motif_471]” the “pull-down binding Z-score” value was -1.06.
“ACAUGCCAAUUUAGAUUCUUGCAAAAGAGUCUUGAACGUGGUGUGU” was tested, and the “pull-down binding Z-score” value was -1.62.
In the case of “ACAUUACACCAUGU [SHAPE_invivo_SARS-CoV-2_Motif_439]”, the “pull-down binding Z-score” value is reported as -0.865.
In the case of “ACAUUAGAUAAUCAAGAUCUCAAUGGUAACUGGUAUGAUUUCGGUGAUUUCAUACAAACCACGCCAGGUAGUGGAGUUCCUGUUGUAGAUUCUUAUUAUUCAUUGU”, the “pull-down binding Z-score” value is reported as 0.46.
In the case of “ACAUUUUAUCUUACUAAUGAUGU [SHAPE_invivo_SARS-CoV-2_Motif_191]”, the “pull-down binding Z-score” value is reported as -1.3.
For “ACCAACCACCACAAACCUCUAUCACCUCAGCUGUUUUGCAGAGUGGUUUUAGAAAAAUGGCAUUCCCAUCUGGU”, the “pull-down binding Z-score” value was 0.456.
For “ACCAAUGUGCUAUGAGGCCCAAUUUCACUAUUAAGGGUUCAUUCCUUAAUGGUUCAUGUGGUAGUGUUGGU [SHAPE_invivo_SARS-CoV-2_Multi_27_ComplexLevel_1]”, the “pull-down binding Z-score” value was -0.569.
In the case of “ACCACCAAUUAAAGAUUUUGGUGGU [SHAPE_invitro_SARS-CoV-2_Motif_434]”, the “pull-down binding Z-score” value is reported as -1.4.
In the case of “ACCAGGAGUUUUCUGUGGUGUAGAUGCUGUAAAUUUACUUACUAAUAUGUUUACACCACUAAUUCAACCUAUUGGU [SHAPE_invitro_SARS-CoV-2_Motif_181]”, the “pull-down binding Z-score” value is reported as -0.878.
With “ACCAGUUAACUGGU [SHAPE_invitro_SARS-CoV-2_Motif_121]” the “pull-down binding Z-score” value was -1.19.
ACCAUUCUUCGUAAGGGUGGU was tested, and the “pull-down binding Z-score” value was -0.847.
In the case of ACCAUUGGUAGAUUUGCCAAUAGGU, the “pull-down binding Z-score” value is reported as -1.45.
In the case of “ACCAUUUAAUGAUGGU [DMSMaPseq_invitro_SARS-CoV-2_Motif_383]”, the “pull-down binding Z-score” value is reported as -1.7.
With ACCCUCAAAAAGAGAUGGCAACUAGCACUCUCCAAGGGU the “pull-down binding Z-score” value was -0.427.
With “ACCGGUGGAAUUGCUAUCGCAAUGGCUUGUCUUGUAGGCUUGAUGUGGCUCAGCUACUUCAUUGCUUCUUUCAGACUGUUUGCGCGUACGCGUUCCAUGUGGU” the “pull-down binding Z-score” value was 0.838.
ACCUAAAUAGAGGU was tested, and the “pull-down binding Z-score” value was -1.63.
For ACCUCGUCUAUGCUUUAAGGCAUUUUGAUGAAGGU, the “pull-down binding Z-score” value was -0.876.
In the case of ACCUGCUCAGUAUGAACUUAAGCAUGGU, the “pull-down binding Z-score” value is reported as -0.0122.
With ACCUUGAAGGAAAACAGGGU the “pull-down binding Z-score” value was -0.135.
With “ACCUUUAAUUGAAUUGUGCGUGGAUGAGGCUGGUUCUAAAUCACCCAUUCAGUACAUCGAUAUCGGU [SHAPE_invivo_SARS-CoV-2_Motif_532]” the “pull-down binding Z-score” value was -0.962.
For “ACCUUUAGUACCUUUCUGGAUAACAAUUGCUUAUAUCAUUUGUAUUUCCACAAAGCAUUUCUAUUGGU”, the “pull-down binding Z-score” value was -0.25.
With “ACGACGACUACUAGCGUGCCUUUGUAAGCACAAGCUGAUGAGUACGAACUUAUGUACUCAUUCGUUUCGGAAGAGACAGGUACGUUAAUAGUUAAUAGCGU” the “pull-down binding Z-score” value was -0.217.
“ACGUACUGCCACUAAAGCAUACAAUGUAACACAAGCUUUCGGCAGACGU” was tested, and the “pull-down binding Z-score” value was 0.871.
“ACGUGAGUCUUGUAAAACCUUCUUUUUACGUUUACUCUCGU” was tested, and the “pull-down binding Z-score” value was -0.213.
“ACGUGGCUUUGGAGACUCCGUGGAGGAGGUCUUAUCAGAGGCACGU” was tested, and the “pull-down binding Z-score” value was 0.34.
In the case of “ACUAAAAAUGU [SHAPE_invitro_SARS-CoV-2_Motif_381]”, the “pull-down binding Z-score” value is reported as -0.642.
For “ACUAAAAUAAAACCUCAUAAUUCACAUGAAGGUAAAACAUUUUAUGUUUUACCUAAUGAUGACACUCUACGUGUUGAGGCUUUUGAGU [DMSMaPseq_invitro_SARS-CoV-2_Multi_18_ComplexLevel_1]”, the “pull-down binding Z-score” value was -1.02.
For “AGGUAAAACCAACAGUGGUUGUUAAUGCAGCCAAUGUUUACCU”, the “pull-down binding Z-score” value was -1.45.
In the case of AGGUAAGUAUGAUACUUACCUG [U1snRNP5ss-2], the “pull-down binding Z-score” value is reported as -0.8.
“AGGUCAAAUCAAUGAUAUGAUUUUAUCU [SHAPE_invitro_SARS-CoV-2_Motif_388]” was tested, and the “pull-down binding Z-score” value was -1.35.
In the case of “AGGUCCAGACAUGUUCCUCGGAACUUGUCGGCGUUGUCCU”, the “pull-down binding Z-score” value is reported as 0.332.
With “AGGUUGGACAGCUGGUGCUGCAGCUU [SHAPE_invivo_SARS-CoV-2_Motif_420]” the “pull-down binding Z-score” value was 0.891.
For “AGGUUGGUAUGCAAAAGUAUUCUACACUCCAGGGACCACCUGGUACUGGUAAGAGUCAUUUUGCUAUUGGCCU”, the “pull-down binding Z-score” value was 0.696.
For AGUACACCUUUGAAAAAGGUGACU, the “pull-down binding Z-score” value was -1.09.
In the case of “AGUAUGGCUACAUACU [DMSMaPseq_invitro_SARS-CoV-2_Motif_53]”, the “pull-down binding Z-score” value is reported as -1.19.
“AGUCAGACAAAUCGCUCCAGGGCAAACUGGAAAGAUUGCUGAUU” was tested, and the “pull-down binding Z-score” value was 0.136.
With “AGUCAUAACAAGAGAAGUGGGUUUUGUCGUGCCUGGUUUGCCUGGCACGAUAUUACGCACAACUAAUGGUGACU [DMSMaPseq_invitro_SARS-CoV-2_Motif_162]” the “pull-down binding Z-score” value was -0.252.
“AGUCAUAGUCAGUUAGGUGGUUUACAUCUACUGAUUGGACU” was tested, and the “pull-down binding Z-score” value was -0.775.
“AGUCCCUGUUGCUAUUCAUGCAGAUCAACUUACUCCUACUUGGCGUGUUUAUUCUACAGGUUCUAAUGUUUUUCAAACACGUGCAGGCUGUUUAAUAGGGGCU” was tested, and the “pull-down binding Z-score” value was -0.608.
In the case of AGUCUUGUAGUGCGUUGUUCGUUCUAUGAAGACU, the “pull-down binding Z-score” value is reported as -1.06.
“AGUGAGUACACUGGUAAUUACCAGUGUGGUCACU [SHAPE_invivo_SARS-CoV-2_Motif_119]” was tested, and the “pull-down binding Z-score” value was -1.01.
For “AGUGAUGGAACU [DMSMaPseq_invitro_SARS-CoV-2_Motif_229]”, the “pull-down binding Z-score” value was -0.572.
In the case of “AGUGCCAACAGACAAUUAUAUAACCACUUACCCGGGUCAGGGUUUAAAUGGUUACACU”, the “pull-down binding Z-score” value is reported as -0.739.
With “AGUGUAAAAGUGCCUUUUACAUU [DMSMaPseq_invitro_SARS-CoV-2_Motif_79]” the “pull-down binding Z-score” value was -1.12.
